Results from publication PMC2954370.

Target: HIV-1 Env gp140 of isolate JRFL (HIV-1 isolate JRFL (clade B)) (UniProt Q75760)
Test: ELISA

“human soluble CD4 (first two domains of the human CD4) (from UniProt P01730 26-203) (domain or fragment)” gave an EC50 of 6 nM.
